Data from US11472877 (Alector, dated 2022).
Numbering of substitutions follows the chain as printed.

B1: T1-26 (antibody, IgG1, V domains shown)
VH: QVQLVQSGAEVKKPGASVKVSCKASGYTFTSYYIHWVRQAPGQGLEWMGIINPSGGSTSYAQKFQGRVTMTRDTSTSTVYMELSSLRSEDTAVYYCARDSAQETYYYGMDVWGQGTTVTVSS
VL: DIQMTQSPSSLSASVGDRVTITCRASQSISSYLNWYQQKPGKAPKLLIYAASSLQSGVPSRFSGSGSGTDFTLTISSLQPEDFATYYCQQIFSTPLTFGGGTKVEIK
notes: huIgG1; also called TI-26
B2: T1-16 (antibody, IgG1, V domains shown)
VH: EVQLVESGGGLVQPGRSLRLSCAASGFTFDDYAMHWVRQAPGKGLEWVSGISWNSGSIGYADSVKGRFTISRDNAKNSLYLQMNSLRAEDTALYYCAKGPRMSGWWADWGQGTLVTVSS
VL: DIQMTQSPSSVSASVGDRVTITCRASQGISSWLAWYQQKPGKAPKLLIYAASSLQSGVPSRFSGSGSGTDFTLTISSLQPEDFATYYCQQADTLPITFGGGTKVEIK
notes: huIgG1; also called TI-16; ADI-19083
B3: T1-32 (antibody, IgG1, V domains shown)
VH: QLQLQESGPGLVKPSETLSLTCTVSGGSISSSSYYWGWIRQPPGKGLEWIGSIYYSGSTYYNPSLKSRVTISVDTSKNQFSLKLSSVTAADTAVYYCARDAPAVVGESPAFDIWGQGTMVTVSS
VL: B2 VL with V11L, G28S, S31R, W32Y, A34N, A91S, D92L, T93D, I96F
notes: huIgG1; also called TI-32
B4: T1-27 (antibody, IgG1, V domains shown)
VH: QVQLQESGPGLVKPSQTLSLTCTVSGGSISSGGYYWSWIRQHPGKGLEWIGYIYYSGSTYYNPSLKSRVTISVDTSKNQFSLKLSSVTAADTAVYYCARDSSIAGRATLSFDYWGQGTLVTVSS
VL: B2 VL with V11L, G28S, W32Y, A34N, A91S, D92F, T93Y, L94D
notes: huIgG1; also called TI-27
B5: T1-25 (antibody, IgG1, V domains shown)
VH: B2 VH with P100G, R101S, M102R, S103Y, G104S, W105H, W106F, A107D, D108Y
VL: EIVLTQSPATLSLSPGERATLSCRASQSVSSYLAWYQQKPGQAPRLLIYDASNRATGIPARFSGSGSGTDFTLTISSLEPEDFAVYYCQQRSVLPLTFGGGTKVEIK
notes: huIgG1; also called TI-25; ADI-19092
B6: T1-19 (antibody, IgG1, V domains shown)
VH: EVQLVESGGGLVQPGGSLRLSCAASGFTFSDHHMDWVRQAPGKGLEWVGRTRNKANSYTTEYAASVKGRFTISRDDSKNSLYLQMNSLKTEDTAVYYCARGPLGYKLWGQGTLVTVSS
VL: B2 VL with S53N, D92N, T93S, L94F, I96L
notes: huIgG1; also called TI-19; ADI-19086
B7: T1-24 (antibody, IgG1, V domains shown)
VH: B2 VH with S52T, M102L, S103L, G104S, W105A, W106L, A107D, D108V, L114M
VL: DIQMTQSPSTLSASVGDRVTITCRASQSISSWLAWYQQKPGKAPKLLIYKASSLESGVPSRFSGSGSGTEFTLTISSLQPDDFATYYCQQDSIYPITFGGGTKVEIK
notes: huIgG1; also called TI-24; ADI-19150
B8: T1-23 (antibody, IgG1, V domains shown)
VH: B2 VH with S52T, M102L, S103L, G104S, W105A, W106L, A107D, D108V, L114M
VL: B7 VL with S30G, D91H, S92Q, I93S, Y94F, P95S, I96P
notes: huIgG1; also called TI-23; ADI-19090
B9: T1-29 (antibody, IgG1, V domains shown)
VH: QLQLQESGPGLVKPSETLSLTCTVSGGSISSSSYYWGWIRQPPGKGLEWIGSIYYSGSTYYNPSLKSRVTISVDTSKNQFSLKLSSVTAADTAVYYCARDGGGTAQADGAYYYGMDVWGQGTTVTVSS
VL: B5 VL with R91G, S92V, V93N, L94Y, L96F
notes: huIgG1; also called TI-29
B10: T1-28 (antibody, IgG1, V domains shown)
VH: EVQLVESGGGLVKPGGSLRLSCAASGFTFSSYSMNWVRQAPGKGLEWVSSISSSSNYIYYADSVKGRFTISRDNAKNSLYLQMNSLRAEDTAVYYCARGPSQYYYDSSAIEAFDIWGQGTMVTVSS
VL: EIVLTQSPATLSVSPGERATLSCRASQSVGSNLAWYQQKPGQAPRLLIYGASTRATGIPARFSGSGSGTEFTLTISSLQSEDFAVYYCQQYLYFPLTFGGGTKVEIK
notes: huIgG1; also called TI-28
B11: T1-31 (antibody, IgG1, V domains shown)
VH: QLQLQESGPGLVKPSETLSLTCTVSGGSISSSSYYWGWIRQPPGKGLEWIGSIYYSGSTYYNPSLKSRVTISVDTSKNQFSLKLSSVTAADTAVYYCARDRRMWDPYGMDVWGQGTTVTVSS
VL: DIQMTQSPSSLSASVGDRVTITCQASQDISNYLNWYQQKPGKAPKLLIYDASNLETGVPSRFSGSGSGTDFTFTISSLQPEDIATYYCQQYDDFPPITFGGGTKVEIK
notes: huIgG1; also called TI-31
B12: T1-21 (antibody, IgG1, V domains shown)
VH: EVQLVESGGGLVQPGGSLRLSCAASGFTFSSYSMNWVRQAPGKGLEWVSYISSSSSTIYYADSVKGRFTISRDNAKNSLYLQMNSLRAEDTAVYYCARGGPLGYGDYKGMDVWGQGTTVTVSS
VL: DIQLTQSPSSLSASVGDRVTITCRASQSISSFLNWYQQKPGKAPKLLIYAASSLQSGVPSRFSGSGSGTDFTLTISSLQPEDFATYYCQQSYSDLTFGGGTKVEIK
notes: huIgG1; also called TI-21; ADI-19088
B13: T1-30 (antibody, IgG1, V domains shown)
VH: QLQLQESGPGLVKPSETLSLTCTVSGGSISSSSYYWGWIRQPPGKGLEWIGSIYYSGSTYYNPSLKSRVTISVDTSKNQFSLKLSSVTAADTAVYYCARGRKAAAGIDEAEYFQHWGQGTLVTVSS
VL: B12 VL with L4M, L11V, S28G, F32W, N34A, S91V, Y92I, D94F, L95P
notes: huIgG1; also called TI-30
B14: T1-20 (antibody, IgG1, V domains shown)
VH: EVQLVESGGGLVQPGGSLRLSCAASGFTFSSYWMSWVRQAPGKGLEWVANIKQDGSEKYYVDSVKGRFTISRDNAKNSLYLQMNSLRAEDTAVYYCARDAPQLGLDVWGQGTMVTVSS
VL: not shown
notes: huIgG1; also called TI-20; ADI-19087

target: T1, human TREM2 on BWZ cells (human, UniProt Q9NZC2 19-230); experiment: FACS, BWZ cells
T1 construct: whole, on cells; not tied to the cell line; also called BWZ Human TREM2
T1 sequence (looked up): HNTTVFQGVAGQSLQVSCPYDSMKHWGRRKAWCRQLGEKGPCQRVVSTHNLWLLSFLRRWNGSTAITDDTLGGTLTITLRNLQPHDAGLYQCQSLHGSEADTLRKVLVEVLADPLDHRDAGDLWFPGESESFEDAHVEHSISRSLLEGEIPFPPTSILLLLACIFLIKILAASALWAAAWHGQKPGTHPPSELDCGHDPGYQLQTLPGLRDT

| Binder | binding result |
| --- | --- |
| B1 | no binding |
| B2 | no binding |
| B3 | no binding |
| B4 | no binding |
| B5 | no binding |
| B6 | no binding |
| B7 | no binding |
| B8 | no binding |
| B9 | no binding |
| B10 | no binding |
| B11 | no binding |
| B12 | no binding |
| B13 | no binding |
| B14 | no binding |

target: T2, mouse TREM2 on BWZ cells (mouse, UniProt Q99NH8 19-227); experiment: FACS, BWZ cells
T2 construct: whole, on cells; also called BWZ Mouse TREM2
T2 sequence (looked up): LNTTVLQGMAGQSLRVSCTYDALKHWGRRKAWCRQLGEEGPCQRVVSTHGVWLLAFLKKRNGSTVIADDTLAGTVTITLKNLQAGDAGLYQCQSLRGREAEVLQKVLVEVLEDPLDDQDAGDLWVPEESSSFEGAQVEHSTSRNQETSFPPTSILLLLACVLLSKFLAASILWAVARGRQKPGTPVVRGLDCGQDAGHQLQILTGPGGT

| Binder | binding result |
| --- | --- |
| B1 | no binding |
| B2 | no binding |
| B3 | no binding |
| B4 | no binding |
| B5 | no binding |
| B6 | no binding |
| B7 | no binding |
| B8 | no binding |
| B9 | no binding |
| B10 | no binding |
| B11 | no binding |
| B12 | no binding |
| B13 | no binding |
| B14 | no binding |

target: T1, human TREM2 on BWZ cells; experiment: FACS, BWZ human TREM2

| Binder | FOB Fold Over Background |
| --- | --- |
| B1 | 0.8 fold |
| B2 | 0.7 fold |
| B3 | 0.9 fold |
| B4 | 0.8 fold |
| B5 | 0.7 fold |
| B6 | 0.5 fold |
| B7 | 1.4 fold |
| B8 | 1 fold |
| B9 | 0.7 fold |
| B10 | 0.6 fold |
| B11 | 0.5 fold |
| B12 | 0.5 fold |
| B13 | 0.5 fold |
| B14 | 0.6 fold |

target: T2, mouse TREM2 on BWZ cells; experiment: FACS, BWZ mouse TREM2

| Binder | FOB Fold Over Background |
| --- | --- |
| B1 | 1.2 fold |
| B2 | 1.2 fold |
| B3 | 1.2 fold |
| B4 | 1.2 fold |
| B5 | 1.3 fold |
| B6 | 0.8 fold |
| B7 | 1.2 fold |
| B8 | 1.2 fold |
| B9 | 1.2 fold |
| B10 | 1.1 fold |
| B11 | 0.9 fold |
| B12 | 0.9 fold |
| B13 | 0.8 fold |
| B14 | 1 fold |

target: T3, mouse TREM1 on CHO cells (mouse, UniProt Q9JKE2 21-230); experiment: FACS, CHO mouse TREM1
T3 construct: also called CHO-mT1
T3 sequence: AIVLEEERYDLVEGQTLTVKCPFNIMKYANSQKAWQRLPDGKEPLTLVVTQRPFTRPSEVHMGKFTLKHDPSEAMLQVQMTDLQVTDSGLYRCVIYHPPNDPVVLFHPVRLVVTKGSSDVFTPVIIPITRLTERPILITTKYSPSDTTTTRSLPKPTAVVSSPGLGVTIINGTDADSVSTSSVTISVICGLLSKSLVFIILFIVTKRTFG

| Binder | FOB Fold Over Background |
| --- | --- |
| B1 | 417 fold |
| B2 | 1 fold |
| B3 | 380 fold |
| B4 | 523 fold |
| B5 | 0.9 fold |
| B6 | 0.9 fold |
| B7 | 1.3 fold |
| B8 | 1 fold |
| B9 | 401 fold |
| B10 | 408 fold |
| B11 | 447 fold |
| B12 | 0.5 fold |
| B13 | 453 fold |
| B14 | 0.7 fold |
